Experimental data: PMC6294515, “Structural basis of the specific interaction of SMRT corepressor with histone deacetylase 4” (Nucleic Acids Research, 2018)

How the values were obtained:
HDAC4c D759Y = conditions: HDAC4c mutant versus wild-type; cited from earlier work
Description: Next, we analyzed the mutational effects of SM1 mutants by OPTHiS screening (Figure 5A). […] In the peptide-complex structures, G+1, S+2 and T+4 residues on both peptides interact, directly or through water molecules, with residues on the cleft wall of the structural zinc-binding subdomain (Figure 3E). Mutations in this peptide region (G+1R, S+2D and T+4N/T+4A) altered the binding affin ... || Among the seven HDACs whose catalytic domain structures have been reported, HDAC4c is unique in that it has an open conformation when it binds to non-peptide molecules. In agreement with this, mutations at the ^+1GSI^+3 residues of two motifs and R+9 residue of the SM1 lead to a loss of its binding activity to HDAC4c/-5c (Figures 1 and 5). The class IIa HDAC-specific residues (D759, H842, and F871), which are located at the cleft to and entrance to the catalytic zinc-binding site, interact directly or indirectly with these residues of bound peptides (Figure 3D and E). Further, HDAC4c mutants o ...

HDAC4 = conditions: cited from earlier work
Description: In contrast to other HDACs, class IIa HDACs have low deacetylase activity ([33]). However, their HDAC domains are directly involved in the transcriptional repression of several genes by forming a supra-complex with the NCoR/SMRT-HDAC3 complex ([16],[17]).

HDAC4c = experiment: Interaction with HDAC4c (yeast two-hybrid, GST pull-down, BiFC); conditions: for interaction with HDAC4c, domain mapping: yeast two-hybrid only, strain EGY48, LexA-fused HDAC4c and SRD3c deletion constructs, liquid β-galactosidase assay
HDAC5c = experiment: Interaction with HDAC5c (yeast two-hybrid, GST pull-down, BiFC); conditions: for interaction with HDAC5c, domain mapping: yeast two-hybrid only, strain EGY48, LexA-fused HDAC5c and SRD3c deletion constructs, liquid β-galactosidase assay

Molecule | interaction with HDAC4c, domain mapping (HDAC4c) | interaction with HDAC5c, domain mapping (HDAC5c) | also measured
GSITQGIPR [SM1, conserved GSI motif 1361-1369 of SRD3c, …] | – | – | binding affinity to HDAC4c D759Y (HDAC4c D759Y): abrogated interactions
SMRT: silencing mediator for retinoid and thyroid receptor, general corepressor | – | – | change in deacetylase activity of HDAC4 in the presence of SMRT (HDAC4): lack of noticeable changes in the deacetylase activity of HDAC4
I-A: SRD3c deletion construct K1316–G1390 (protein, UniProt Q9Y618 1316-1390, looked up, fragment) GRVGRAISSASIEGLMGRAIPPERHSPHHLKEQHHIRGSITQGIPRSYVEAQEDYLRREAKLLKREGTPPPPPPS | independently interacted with HDAC4c/-5c | independently interacted with HDAC4c/-5c | –
II: SRD3c deletion construct P1396–S1515 (protein, UniProt Q9Y618 1396-1515, looked up, fragment) AYKTQALGPLKLKPAHEGLVATVKEAGRSIHEIPREELRHTPELPLAPRPLKEGSITQGTPLKYDTGASTTGSKKHDVRSLIGSPGRTFPPVHPLDVMADARALERACYEESLKSRPGTA | independently interacted with HDAC4c/-5c, although the binding strength of region II was relatively weaker than that of region I-A | independently interacted with HDAC4c/-5c, although the binding strength of region II was relatively weaker than that of region I-A | –
SRD3n: N-terminal region of SRD3 (R1128–E1289) (protein, UniProt Q9Y618 1128-1289, looked up, fragment) GMSVQLHVPYSEHAKAPVGPVTMGLPLPMDPKKLAPFSGVKQEQLSPRGQAGPPESLGVPTAQEASVLRGTALGSVPGGSITKGIPSTRVPSDSAITYRGSITHGTPADVLYKGTITRIIGEDSPSRLDRGREDSLPKGHVIYEGKKGHVLSYEGGMSVTQC | – | – | binding to HDAC4c (HDAC4c; yeast two-hybrid (β-galactosidase), GST pull-down, BiFC in HEK293 cells, result in words): marginal interaction; binding to HDAC5c (HDAC5c; yeast two-hybrid (β-galactosidase), in vitro GST pull-down, BiFC in HEK293 cells, result in words): marginal interaction
